Here are results for three proteins from publication PMC5870055, “Structural and Mechanistic Analysis of the Choline Sulfatase from Sinorhizobium melliloti: A Class I Sulfatase Specific for an Alkyl Sulfate Ester” (Journal of Molecular Biology, 2018).

B1: SmCS Δ23 (truncated mutant lacking 23 C-terminal amino acids) (domain or fragment, Sinorhizobium meliloti 1021, UniProt O69787 1-489, looked up)
chain: MTTGKPNILIIMVDQLNGKLFPDGPADFLHAPNLKALAKRSARFHNNYTSSPLCAPARASFMAGQLPSRTRVYDNAAEYQSSIPTYAHHLRRAGYYTALSGKMHFVGPDQLHGFEERLTTDIYPADFGWTPDYRKPGERIDWWYHNLGSVTGAGVAEITNQMEYDDEVAFLANQKLYQLSRENDDESRRPWCLTVSFTHPHDPYVARRKFWDLYEDCEHLTPEVGAIPLDEQDPHSQRIMLSCDYQNFDVTEENVRRSRRAYFANISYLDEKVGELIDTLTRTRMLDDTLILFCSDHGDMLGERGLWFKMNFFEGSARVPLMIAGPGIAPGLHLTPTSNLDVTPTLADLAGISLEEVRPWTDGVSLVPMVNGVERTEPVLMEYAAEASYAPLVAIREGKWKYVYCALDPEQLFDLEADPLELTNLAENPRGPVDQATLTAFRDMRAAHWDMEAFDAAVRESQARRWVVYEALRNGAYYPWDHQPLQKAS
notes: Choline sulfatase (BetC) of S. meliloti 1021 with Glu490 replaced by a stop codon, so that the last 23 residues (490-512) are missing; Predominantly a dimer (78%); source: E. coli BL21(DE3) expressing MtbFGE, purified (Q-Sepharose, Strep-Tactin, Superdex 200)
B2: Sinorhizobium meliloti choline sulfatase wild type (enzyme, Sinorhizobium meliloti 1021, UniProt O69787 1-512, looked up)
chain: MTTGKPNILIIMVDQLNGKLFPDGPADFLHAPNLKALAKRSARFHNNYTSSPLCAPARASFMAGQLPSRTRVYDNAAEYQSSIPTYAHHLRRAGYYTALSGKMHFVGPDQLHGFEERLTTDIYPADFGWTPDYRKPGERIDWWYHNLGSVTGAGVAEITNQMEYDDEVAFLANQKLYQLSRENDDESRRPWCLTVSFTHPHDPYVARRKFWDLYEDCEHLTPEVGAIPLDEQDPHSQRIMLSCDYQNFDVTEENVRRSRRAYFANISYLDEKVGELIDTLTRTRMLDDTLILFCSDHGDMLGERGLWFKMNFFEGSARVPLMIAGPGIAPGLHLTPTSNLDVTPTLADLAGISLEEVRPWTDGVSLVPMVNGVERTEPVLMEYAAEASYAPLVAIREGKWKYVYCALDPEQLFDLEADPLELTNLAENPRGPVDQATLTAFRDMRAAHWDMEAFDAAVRESQARRWVVYEALRNGAYYPWDHQPLQKASERYMRNHMNLDTLEESKRYPRGE
modifications: Cys54 partially converted into formylglycine (fGly); modelled as cysteine and formyl glycine at 50% occupancy each
notes: Choline sulfatase (BetC) of S. meliloti 1021; the whole gene (positions 1491-3029 of GenBank U39940) amplified from genomic DNA and cloned into pASK-IBA5plus; the C-terminal region is printed as residues 449-512; Protomer Mw ~61 kDa; also called SmCS; SmCS WT; source: E. coli BL21(DE3) expressing MtbFGE, purified (Q-Sepharose, Strep-Tactin, Superdex 200)
B3: SmCS Δ12 (truncated mutant lacking 12 C-terminal amino acids) (domain or fragment, Sinorhizobium meliloti 1021, UniProt O69787 1-500, looked up)
chain: MTTGKPNILIIMVDQLNGKLFPDGPADFLHAPNLKALAKRSARFHNNYTSSPLCAPARASFMAGQLPSRTRVYDNAAEYQSSIPTYAHHLRRAGYYTALSGKMHFVGPDQLHGFEERLTTDIYPADFGWTPDYRKPGERIDWWYHNLGSVTGAGVAEITNQMEYDDEVAFLANQKLYQLSRENDDESRRPWCLTVSFTHPHDPYVARRKFWDLYEDCEHLTPEVGAIPLDEQDPHSQRIMLSCDYQNFDVTEENVRRSRRAYFANISYLDEKVGELIDTLTRTRMLDDTLILFCSDHGDMLGERGLWFKMNFFEGSARVPLMIAGPGIAPGLHLTPTSNLDVTPTLADLAGISLEEVRPWTDGVSLVPMVNGVERTEPVLMEYAAEASYAPLVAIREGKWKYVYCALDPEQLFDLEADPLELTNLAENPRGPVDQATLTAFRDMRAAHWDMEAFDAAVRESQARRWVVYEALRNGAYYPWDHQPLQKASERYMRNHMNLD
notes: Choline sulfatase (BetC) of S. meliloti 1021 with Thr501 replaced by a stop codon, so that the last 12 residues (501-512) are missing; Predominantly a tetramer (87%), with some dimer (11%) and monomer (2%); Made from the pASK-IBA5plusSmCS WT plasmid by QuikChange; source: E. coli BL21(DE3) expressing MtbFGE, purified (Q-Sepharose, Strep-Tactin, Superdex 200)

This data set deals with the molecule itself. The experiment in a line: SEC-MALS; 100 uL of 2 mg/mL protein on Superdex 200 10/300 HR in 100 mM Tris-HCl pH 8.0, 150 mM NaCl, 0.5 mL/min; multi-angle light scattering and differential refractive index detectors.
As a reminder, the stoichiometry N is the number of molecules, sites or subunits per partner or assembly. On to B1, for which the “stoichiometry N” value was 2.
In the case of B2 it was 4.
In the case of B3 it was 4.
